Assay [1] concerns the target naturally cleaved, untagged human BAFF H218A (human). Kind of assay: SEC; concentrated 293 T supernatants of naturally cleaved BAFF fractionated on Superdex 200 Increase; fractions blotted with anti-BAFF antibodies; oligomer seen in the fractions. (SEC sorts molecules by how far they enter the pores of the column.)
Assay [2] addresses His-tagged human BAFF (60-mer) (human) (UniProt Q9Y275). Kind of assay: SEC; purified His-tagged BAFF alone on Superdex 200 Increase, against molecular weight standards.
The target in assay [3] is naturally cleaved, untagged human BAFF E223K (human). Kind of assay: SEC; concentrated 293 T supernatants of naturally cleaved BAFF fractionated on Superdex 200 Increase; fractions blotted with anti-BAFF antibodies; oligomer seen in the fractions.
A further assay addresses T1, Fc-human BAFF, wild type (human, UniProt Q9Y275).
T1 construct: human BAFF (TNFSF13B); called an intrinsically cross-linked BAFF; also called Fc-hBAFF WT; Fc-BAFF
As to the kind of experiment: ELISA; Fc-hBAFF (WT or H218A) coated at 1 µg/ml; soluble Fc-BAFF (WT or H218A) titrated, then biotinylated Fab of belimumab (50 µl of 100 ng/ml); streptavidin-peroxidase detection; relative affinity. As to conditions: both partners purified. Background: An ELISA detects its analyte on a solid surface through an enzyme-linked reagent.

The target of assay [4] is T2, FLAG-tagged human BAFF 3-mer, E223K (human, UniProt Q9Y275 134-285, E223K).
T2 construct: human BAFF (TNFSF13B), soluble form; also called FLAG-hBAFF E223K; source: 293 T cells, transient transfection, supernatant, size fractionated by gel filtration (3-mer fractions 15 + 16)
As to the kind of experiment: ELISA; direct binding: BAFFR-Fc, BCMA-Fc or TACI-Fc (human or mouse) adsorbed at 1 µg/ml; FLAG-tagged BAFF 3-mers of the corresponding species 1 h at 37 °C in PBS, 0.4% milk, 0.05% Tween-20; biotinylated anti-FLAG detection. As to conditions: both partners purified.

The target of assay [5] is T3, FLAG-tagged human BAFF 3-mer, H218A (human, UniProt Q9Y275 134-285, H218A).
T3 construct: human BAFF (TNFSF13B), soluble form; also called FLAG-hBAFF H218A; source: 293 T cells, transient transfection, supernatant, size fractionated by gel filtration (3-mer fractions 15 + 16)
The description is as above. The settings on record: both partners purified.

Assay [6] addresses T4, FLAG-tagged mouse BAFF 3-mer, E247K (mouse, UniProt Q9WU72 127-309, E247K).
T4 construct: mouse BAFF (Tnfsf13b), soluble form; also called FLAG-mBAFF E247K; source: 293 T cells, transient transfection, supernatant, size fractionated by gel filtration (3-mer fractions 13 + 14)
T4 sequence (looked up): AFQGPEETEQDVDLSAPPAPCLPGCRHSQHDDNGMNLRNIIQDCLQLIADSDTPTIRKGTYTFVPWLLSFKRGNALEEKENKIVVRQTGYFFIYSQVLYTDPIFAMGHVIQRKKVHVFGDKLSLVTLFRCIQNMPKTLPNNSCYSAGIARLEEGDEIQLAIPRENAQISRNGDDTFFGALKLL
The description is as above. As to conditions: both partners purified.

Assay [7] deals with T5, FLAG-tagged mouse BAFF 3-mer, wild type (mouse, UniProt Q9WU72 127-309).
T5 construct: mouse BAFF (Tnfsf13b), soluble form; also called FLAG-mBAFF WT; mBAFF; source: 293 T cells, transient transfection, supernatant, size fractionated by gel filtration (3-mer fractions 13 + 14)
The description is as above. As to conditions: both partners purified.

Assay [8] addresses T6, FLAG-tagged mouse BAFF 3-mer, H242A (mouse, UniProt Q9WU72 127-309, H242A).
T6 construct: mouse BAFF (Tnfsf13b), soluble form; also called FLAG-mBAFF H242A; source: 293 T cells, transient transfection, supernatant, size fractionated by gel filtration (3-mer fractions 13 + 14)
T6 sequence (looked up): T4 sequence (looked up) with H116A, K121E
The assay is described as above. As to conditions: both partners purified.

Substitutions are numbered along the chain they refer to.

For the molecule “naturally cleaved, untagged human BAFF H218A (ligand)”, the stoichiometry N (as a rule, the number of molecules, sites or subunits per partner or assembly) in assay [1] came to 3.

“His-tagged human BAFF (60-mer) (from UniProt Q9Y275 134-285) (ligand)” yielded a stoichiometry N in assay [2] of 60.

As to “naturally cleaved, untagged human BAFF E223K (ligand)”, the stoichiometry N in assay [3] amounted to 3.

B1: Fab fragment of belimumab (Fab, V domains shown)
VH: QVQLQQSGAEVKKPGSSVRVSCKASGGTFNNNAINWVRQAPGQGLEWMGGIIPMFGTAKYSQNFQGRVAITADESTGTASMELSSLRSEDTAVYYCARSRDLLLFPHHALSPWGRGTMVTVSS
VL: SSELTQDPAVSVALGQTVRVTCQGDSLRSYYASWYQQKPGQAPVLVIYGKNNRPSGIPDRFSGSSSGNTASLTITGAQAEDEADYYCSSRDSSGNHWVFGGGTELTVL
notes: heavy-chain part of the Fab; as the light chain of m24; also called belimumab Fab; source: papain digestion of belimumab, flowthrough of Protein A, size-fractionated (Superdex 200 Increase)
Turning to B1, the binding result with Fc-human BAFF, wild type was “binds”.

B2: human BCMA-Fc (Fc fusion, UniProt Q02223 1-54, looked up)
chain: MLQMAGQCSQNEYFDSLLHACIPCQLRCSSNTPPLTCQRYCNASVTNSVKGTNA
notes: human BCMA (TNFRSF17); also called TNFRSF17
B2: the binding result in [4] and in assay [5] was “binds” throughout.

B3: mouse BAFFR-Fc (Fc fusion, UniProt Q9D8D0 1-71, looked up)
chain: MGARRLRVRSQRSRDSSVPTQCNQTECFDPLVRNCVSCELFHTPDTGHTSSLEPGTALQPQEGSALRPDVA
notes: mouse BAFF receptor (BAFFR); also called mBAFFR-Fc
On to B3, for which the binding result in [6], in assay [7] and in [8] was “binds” throughout.

B4: mouse TACI-Fc (Fc fusion, UniProt Q9ET35 1-128, looked up)
chain: MAMAFCPKDQYWDSSRKSCVSCALTCSQRSQRTCTDFCKFINCRKEQGRYYDHLLGACVSCDSTCTQHPQQCAHFCEKRPRSQANLQPELGRPQAGEVEVRSDNSGRHQGSEHGPGLRLSSDQLTLYC
notes: mouse TACI
B4: the binding result in [6], in [7] and in assay [8] was “binds” in each case.

For the molecule MAQQCFHSEYFDSLLHACKPCHLRCSNPPATCQPYCDPSVTSSVKGTYT (Fc fusion, UniProt O88472 1-49, looked up, mouse BCMA) [mouse BCMA-Fc], the binding result in assay [6], in assay [7] and in assay [8] was “binds” in each case.

The values are drawn from paper PMC5865128 (Nature Communications, 2018).
